The data set concerns MS2 coat protein. The data set is described as follows: apparent KD of MS2 coat protein; designed switch direction (-1 OFF switch, 1 ON switch): -1; higher = weaker reporter binding. In outline: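 For each design, the apparent KD is the median over clusters of curves fitted to normalised cluster fluorescence. Clusters held RNA switches with common flanks, transcribed on Illumina chips by stalled E. coli RNA polymerase. These were titrated with SNAP-549-labelled MS2 coat protein, doubling from 0.7 or 1.5 nM to 3 µM, without input, with 200 uM small-molecule ligand, or with an oligonucleotide input.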

[1] abbreviates: input ligand: microRNA oligo, concentration not stated.
The mark [2] stands for this setting: Eterna round: R95, input ligand: FMN 200 uM.
The mark [3] stands for this setting: Eterna round: R95, input ligand: microRNA oligo, concentration not stated.
Where [4] appears, read: Eterna round: R95, input ligand: none.

Regarding “ACCUCUGAGGAGGAUAUACAGUGCGAAAGGACAGUAGAAGGCUUCACAUGAGGAUCACCCAUGUCGAAUAGUGA [EX6 #79] (Eterna round: R97, puzzle: Exclusion 6)”, the “apparent KD of MS2 coat protein” value came to 86.1 nM (input ligand: FMN 200 uM) and 58.7 nM (input ligand: none).

In the case of “GUAGAGUCAGGAUAUACGAGAUCGAAAGAUCUUUGAUCCUAACAUGAGGAUCACCCAUGUAGAAGGGACUCUAC [Omei mod 3 to Eli's favorate candidate (ch.parushev)] (Eterna round: R97, puzzle: Exclusion 2)”, the “apparent KD of MS2 coat protein” value by setting is: (input ligand: FMN 200 uM) 698 nM; (input ligand: none) 58 nM.

For the sequence “GCACGGAUGGUAGGAUAUCAUUGCGAUUAGCUAUGAGAAGGGCCACAUGAGGAUCACCCAUGUCCUCUAAUUAGCCUUCCGUGC [Eli exng1 - 018] (Eterna round: R96, puzzle: Exclusion NG 1)”, under setting [1], the “apparent KD of MS2 coat protein” value was 82.3 nM.

For the sequence “GCAGCUUAGUUAACAGACUGUUACAUGAGGAUCACCCAUGUACAGGAUAUGGUCUGGAUUACAGGCCAGAAGGGUACAAGCUGC [Eli exng3 - 018] (Eterna round: R96, puzzle: Exclusion NG 3)”, the “apparent KD of MS2 coat protein” value reads like this: (input ligand: FMN 200 uM) 9.62 nM; under setting [1], 9.01 nM; (input ligand: none) 11.5 nM.

“CGUGACUAAGGAUAUACAUGAGGAUCACCCAUGUGAUUCAAGAUUUUCGACUGGAGAGGUAGAAGGUGGAUGCC [Eternabot (L1) Solution 99] (Eterna round: R97, puzzle: Exclusion 3)”: the “apparent KD of MS2 coat protein” value (input ligand: FMN 200 uM) is 63.3 nM and the “apparent KD of MS2 coat protein” value (input ligand: none) amounted to 94.4 nM.

On to “UCAUGUAUGUAGGAUAUCGAUGUCCUCGGACAUCGAGAAGGACGUACAUGAGGAUCACCCAUGUAACUUGCAUG [Exclusion 6 - B - 11:c] (puzzle: Exclusion 6)”, for which the “apparent KD of MS2 coat protein” value is, setting by setting: under setting [2], 23 nM; under setting [3], 14 nM; under setting [4], 23.4 nM.

With “GCAGCAUAGAUAACAGUCUGAUACAUGAGGAUCACCCAUGUGCAGGAUAUGGUCUGGAUUACAGGCCAGAAGGGUACAAGCUGC [Eli exng3 - 015] (Eterna round: R96, puzzle: Exclusion NG 3)”, the “apparent KD of MS2 coat protein” value (input ligand: FMN 200 uM) is 10.4 nM, the “apparent KD of MS2 coat protein” value under setting [1] was found to be 7.84 nM and the “apparent KD of MS2 coat protein” value (input ligand: none) stood at 13.4 nM.

“CCGCAACAUGAGGAUCACCCAUGUCAGGAUAUCGUACGUUCGUCGAAAGACGAUCGUACGAGAAGGGUGUGCGG [Eli x1 4.36] (Eterna round: R97, puzzle: Exclusion 1)”: the “apparent KD of MS2 coat protein” value runs as follows: (input ligand: FMN 200 uM) 79.8 nM; (input ligand: none) 110 nM.

Take “CUGCUCCGUGUAGGAUAUGCGCGCAACCAACGCGCAGAAGGACAUGAGGAUCACCCAUGUAUGUUAUUAUCACGUGAAGCGCAA [Design 31] (Eterna round: R96, puzzle: Exclusion NG 1)”: the “apparent KD of MS2 coat protein” value runs as follows: (input ligand: FMN 200 uM) 16 nM; under setting [1], 12.3 nM; (input ligand: none) 13.2 nM.

With “UCCUGGCGAGGAUAUACAAAGAUUUUUUCGUUUUGUCUCGAACAUGAGGAUCACCCAUGUAGAAGGUGCUGCUG [JR_Ex2_Sub014] (Eterna round: R97, puzzle: Exclusion 2)”, the “apparent KD of MS2 coat protein” value by setting is: (input ligand: FMN 200 uM) 50.3 nM; (input ligand: none) 52.2 nM.

Take “UGAAUAAUAGUAAGGAUAUCAGCCGCGAAAGUGGCUGAGAAGGUACAUGAGGAUCACCCAUGUGAAAUAAGAAU [Mod of Zala 19 - Jieux - Brourd's Mod of Exclusion 4] (Eterna round: R97, puzzle: Brourd's mod of Exclusion 4)”: the “apparent KD of MS2 coat protein” value came to 27.1 nM (input ligand: FMN 200 uM) and 19.8 nM (input ligand: none).

Consider “GAAUAGAGAGGAUAUGCGUAGUAGGUAGUAAGAUAUAUAUGACAUGAGGAUCACCCAUGUAGAAGGCUCAGAUA [EX2 #2] (Eterna round: R97, puzzle: Exclusion 2)”, for which the “apparent KD of MS2 coat protein” value came to 38.3 nM (input ligand: FMN 200 uM) and 35.8 nM (input ligand: none).

Take “UUGUUAUGUGUAGGAUAUGCGUAUUAUUAUUAUGCAGAAGGACAUGAGGAUCACCCAUGUGUAUUAUUAUUAUAUAUUAUAUAU [Title] (Eterna round: R96, puzzle: Exclusion NG 1)”: the “apparent KD of MS2 coat protein” value (input ligand: FMN 200 uM) turned out to be 41.2 nM, the “apparent KD of MS2 coat protein” value under setting [1] was determined as 20.4 nM and the “apparent KD of MS2 coat protein” value (input ligand: none) worked out at 22 nM.

“AAUAAAAGCGAGGAUAUCGUAUCGGAAACGAUACGAGAAGGCGUAACAUGAGGAUCACCCAUGUGUCCUCAAUA [Mat - Exclusion 6 - Eli Mod - D8] (Eterna round: R97, puzzle: Exclusion 6)”: the “apparent KD of MS2 coat protein” value (input ligand: FMN 200 uM) amounted to 1260 nM and the “apparent KD of MS2 coat protein” value (input ligand: none) worked out at 130 nM.

As to “UUUUACAUAGGAUAUAGUUUGUUGUACAUGAGGAUCACCCAUGUUGUUGGUUGUGCUGUUCUAGAAGGAUGUUUCU [JR_E5_Sub014] (puzzle: Exclusion 5)”, the “apparent KD of MS2 coat protein” value under setting [3] amounted to 37.3 nM.

Turning to “AAAUGAGAGCAGGAUAUCUUAUAAAUGUAUGAAAGAGAAGGGCUCACAUGAGGAUCACCCAUGUGGUCCUAGAU [jl-ex6-4.77 jandersonlee mod] (Eterna round: R97, puzzle: Exclusion 6)”, the “apparent KD of MS2 coat protein” value reads like this: (input ligand: FMN 200 uM) 673 nM; (input ligand: none) 32.7 nM.

Consider “GCCAGAGCAGGAUAUUCAAUAAUCCACAUGAGGAUCACCCAUGUCCUGCGAAAGCAGGAGGGAGAAGGGCUCUGGC [Mat - Exclusion 5 - Eli mod - D89] (puzzle: Exclusion 5)”, for which the “apparent KD of MS2 coat protein” value by setting is: under setting [2], 37.7 nM; under setting [3], 75.7 nM; under setting [4], 81.9 nM.

As to “GAUUAUGCGAGCUUUAGGGACAUGAGGAUCACCCAUGUUCGUCUUAUUGGUCUAGAUACACUAACAUACCUAAAUCU [JMF 12] (puzzle: Sensor v3, turn-off variant 1)”, the “apparent KD of MS2 coat protein” value by setting is: under setting [2], 15.2 nM; under setting [3], 21.4 nM; under setting [4], 17.4 nM.

As for “AAUAAGGGAGGAUAUGCGGAACGGUUUGUUCUCAGUGAGGCACAUGAGGAUCACCCAUGUAGAAGGCCCGGCAA [Orinar] (Eterna round: R96, puzzle: Exclusion 2)”, the “apparent KD of MS2 coat protein” value by setting is: (input ligand: FMN 200 uM) 63.4 nM; under setting [1], 12.1 nM; (input ligand: none) 17.4 nM.

Consider “GAAAAGGUAGGAUAUACGAAAAAAAAGGGUAGGAAAAAAACACAUGAGGAUCACCCAUGUAGAAGGACCAAAAG [salish99_ex2_r3_024] (puzzle: Exclusion 2)”, for which the “apparent KD of MS2 coat protein” value by setting is: under setting [2], 61.7 nM; under setting [3], 21.8 nM; under setting [4], 19.8 nM.

“AUUAACUUAGGAUAUACAUGAGGAUCACCCAUGUCCCACCCGUUACCCAUGACCAUAUGUAGAAGGAAGAAGAA [Exy#9] (Eterna round: R97, puzzle: Exclusion 3)”: the “apparent KD of MS2 coat protein” value by setting is: (input ligand: FMN 200 uM) 32.2 nM; (input ligand: none) 39.5 nM.

In the case of “AAAACGGACCGAGGAUAUACACGAUAUCUUUGCGUAGAAGGCGGACCGGCGACUUGAGGAUCACCCAAGUGUCCUCUUUUGCGG [Mutated MS2 EX1.4] (Eterna round: R96, puzzle: Exclusion NG 1)”, the “apparent KD of MS2 coat protein” value (input ligand: FMN 200 uM) stood at 323 nM, the “apparent KD of MS2 coat protein” value under setting [1] turned out to be 110 nM and the “apparent KD of MS2 coat protein” value (input ligand: none) is 175 nM.

In the case of “AGGGUUUGAGGAUAUAUCUGGUGGGACAUGAGGAUCACCCAUGUUCAUGUCGUAUCCUCAGUAGAAGGCAGACAGG [Eternabot (Original) Solution 14] (Eterna round: R97, puzzle: Exclusion 5)”, the “apparent KD of MS2 coat protein” value was 13.2 nM (input ligand: FMN 200 uM) and 13.4 nM (input ligand: none).

Values taken from the supplement of paper PMC9170038.
